The test has as its target T1, FhuA, outer membrane TonB-dependent transporter of E. coli (mature part, His10-TEV construct) (E. coli, UniProt P06971 34-747).
T1 construct: FhuA of E. coli, the mature part, amplified from E. coli genomic DNA; No TEV cleavage is told for the SEC and cryo-EM samples; also called wild-type FhuA; free FhuA; source: E. coli Bl21 (DE3) Δcyo, alone or co-overexpressed with Llp, purified (IMAC, SEC, in detergent)
T1 sequence (looked up): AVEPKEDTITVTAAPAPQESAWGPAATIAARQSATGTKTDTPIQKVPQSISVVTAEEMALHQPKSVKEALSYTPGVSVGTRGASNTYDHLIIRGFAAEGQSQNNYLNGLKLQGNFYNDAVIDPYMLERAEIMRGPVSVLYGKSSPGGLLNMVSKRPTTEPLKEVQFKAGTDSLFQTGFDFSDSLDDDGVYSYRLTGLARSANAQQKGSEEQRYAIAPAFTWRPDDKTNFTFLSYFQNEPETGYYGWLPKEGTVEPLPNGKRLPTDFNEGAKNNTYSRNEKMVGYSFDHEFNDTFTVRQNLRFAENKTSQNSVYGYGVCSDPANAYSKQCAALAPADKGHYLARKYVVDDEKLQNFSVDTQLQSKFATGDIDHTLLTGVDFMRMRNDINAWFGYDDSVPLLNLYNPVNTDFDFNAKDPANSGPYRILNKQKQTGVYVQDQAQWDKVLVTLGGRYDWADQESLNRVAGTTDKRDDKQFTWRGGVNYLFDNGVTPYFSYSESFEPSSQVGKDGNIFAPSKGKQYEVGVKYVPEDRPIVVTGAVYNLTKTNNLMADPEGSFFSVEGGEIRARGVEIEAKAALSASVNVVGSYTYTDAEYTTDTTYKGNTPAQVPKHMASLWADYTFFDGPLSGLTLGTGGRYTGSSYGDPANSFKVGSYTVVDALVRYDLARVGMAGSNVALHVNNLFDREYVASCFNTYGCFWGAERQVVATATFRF
As to the kind of experiment: SEC; complex assembled in vivo by co-overexpression in E. coli, purified by IMAC and then gel filtration (Superdex-200, 10 mM Hepes, 100 mM NaCl, 0.05% LDAO, pH 7.5); fractions on SDS-PAGE. The following applies: partners not purified. For orientation: In gel filtration, larger molecules generally elute earlier.

Results on 1 molecule are retold here after PMC9586334 (Proceedings of the National Academy of Sciences of the …, 2022).

Positions of bridges follow the written chain, without caps; N, C: chain ends. lipid anchor = not defined here

B1: Llp, superinfection exclusion lipoprotein of bacteriophage T5 (natural protein, UniProt Q38162 16-77, looked up)
chain: C(lipid anchor)STFGPKDIKCEAYYMQDHVKYKANVFDRKGDMFLVSPIMAYGSFWAPVSYFTEGNTCEGVF
modifications: disulfide 11-58; reading uncertain
notes: Llp of bacteriophage T5, codon-optimized synthetic gene in the arabinose-inducible vector pB22; Lipoprotein; also called lytic conversion protein; SE lipoprotein; source: E. coli Bl21 (DE3) Δcyo, alone or co-overexpressed with FhuA, purified from membranes (IMAC, SEC, in detergent)
B1: the binding result is “binds”.
